Tested on: YlxR (Bacillus subtilis 168)
Assay: EMSA
Details: 10 mM Tris-HCl pH 8.0, 100 mM KCl, 10 mM MgCl2, 1 mM DTT, 10% glycerol, 12 ul; 1% agarose gel in Tris-acetate-EDTA, loaded immediately after protein addition …

## pET28b(+) supercoiled
  Kd: 100 nM

Source: article PMC6200986
